B1: OVA-FLIPr-like fusion protein (other)
chain: MGSIGAASMEFCFDVFKELKVHHANENIFYCPIAIMSALAMVYLGAKDSTRTQINKVVRFDKLPGFGDSIEAQCGTSVNVHSSLRDILNQITKPNDVYSFSLASRLYAEERYPILPEYLQCVKELYRGGLEPINFQTAADQARELINSWVESQTNGIIRNVLQPSSVDSQTAMVLVNAIVFKGLWEKAFKDEDTQAMPFRVTEQESKPVQMMYQIGLFRVASMASEKMKILELPFASGTMSMLVLLPDEVSGLEQLESIINFEKLTEWTSSNVMEERKIKVYLPRMKMEEKYNLTSVLMAMGITDVFSSSANLSGISSAESLKISQAVHAAHAEINEAGREVVGSAEAGVDAASVSEEFRADHPFLFCIKHIATNAVLFFGRCVSPGGGGSGGGGSGGGGSFFSYEWKGLEIAKNLADQAKKDDERADKLIKEADEKNEHYKGKTVEDLYVIAKKMGKGNTIAVVKIKDGGKNGYYTFDITRPLEEHRKNIPVVKNGEIDSITWYLEHHHHHH
notes: Expressed in E. coli from pET-22b(+) and purified by IMAC; also called recombinant OVA-FLIPr-like fusion protein
B2: biotin-conjugated recombinant FcγRIIb (receptor)
chain: APPKAVLKLEPQWINVLQEDSVTLTCRGTHSPESDSIQWFHNGNLIPTHTQPSYRFKANNNDSGEYTCQTGQTSLSDPVHLTVLSEWLVLQTPHLEFQEGETIVLRCHSWKDKPLVKVTFFQNGKSKKFSRSDPNFSIPQANHSHSGDYHCTGNIGYTLYSSKPVTITVQAP
modifications: biotin-conjugated
B3: biotin-conjugated recombinant FcγRI (receptor)
chain: QVDTTKAVITLQPPWVSVFQEETVTLHCEVLHLPGSSSTQWFLNGTATQTSTPSYRITSASVNDSGEYRCQRGLSGRSDPIQLEIHRGWLLLQVSSRVFTEGEPLALRCHAWKDKLVYNVLYYRNGKAFKFFHWNSNLTILKTNISHNGTYHCSGMGKHRYTSAGISVTVKELFPAPVLNASVTSPLLEGNLVTLSCETKLLLQRPGLQLYFSFYMGSKTLRGRNTSSEYQILTARREDSGLYWCEAATEDGNVLKRSPELELQVLGLQLPTP
modifications: biotin-conjugated
B4: OVA-FLIPr fusion protein (other)
chain: MGSIGAASMEFCFDVFKELKVHHANENIFYCPIAIMSALAMVYLGAKDSTRTQINKVVRFDKLPGFGDSIEAQCGTSVNVHSSLRDILNQITKPNDVYSFSLASRLYAEERYPILPEYLQCVKELYRGGLEPINFQTAADQARELINSWVESQTNGIIRNVLQPSSVDSQTAMVLVNAIVFKGLWEKAFKDEDTQAMPFRVTEQESKPVQMMYQIGLFRVASMASEKMKILELPFASGTMSMLVLLPDEVSGLEQLESIINFEKLTEWTSSNVMEERKIKVYLPRMKMEEKYNLTSVLMAMGITDVFSSSANLSGISSAESLKISQAVHAAHAEINEAGREVVGSAEAGVDAASVSEEFRADHPFLFCIKHIATNAVLFFGRCVSPGGGGSGGGGSGGGGSFFSYEWKGLEIAKNLADQAKKDDERIDKLMKESDKNLTPYKAETVNDLYLIVKKLSQGDVKKAVVRIKDGGPRDYYTFDLTRPLEENRKNIKVVKNGEIDSIYWDLEHHHHHH
notes: Expressed in E. coli from pET-22b(+) and purified by IMAC; also called recombinant OVA-FLIPr fusion protein
B5: biotin-conjugated recombinant FcγRIIa-H131 (receptor)
chain: AAPPKAVLKLEPPWINVLQEDSVTLTCQGARSPESDSIQWFHNGNLIPTHTQPSYRFKANNNDSGEYTCQTGQTSLSDPVHLTVLSEWLVLQTPHLEFQEGETIMLRCHSWKDKPLVKVTFFQNGKSQKFSHLDPTFSIPQANHSHSGDYHCTGNIGYTLFSSKPVTITVQVPSMGSSSPMGI
modifications: biotin-conjugated
notes: The H131 allotype name implies the human receptor

Assays:
[1] = target: T1, biotin-conjugated recombinant FcγRIIIa-F158 (UniProt P08637 17-208, biotin-conjugated); assay: ELISA, coated fusion protein, biotin-conjugated FcγR in solution
T1 construct: The F158 allotype name implies the human receptor
T1 sequence (P08637 17-208 limits assumed): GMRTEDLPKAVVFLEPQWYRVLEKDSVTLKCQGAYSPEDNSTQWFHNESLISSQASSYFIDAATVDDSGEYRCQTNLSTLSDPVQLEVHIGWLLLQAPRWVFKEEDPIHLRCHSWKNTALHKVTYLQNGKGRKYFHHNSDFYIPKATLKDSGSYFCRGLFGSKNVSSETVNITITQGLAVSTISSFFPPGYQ

[2] = target: B5; assay: as above
[3] = target: T2, biotin-conjugated recombinant FcγRIIIa-V158 (UniProt P08637 17-208); assay: as above
T2 construct: The V158 allotype name implies the human receptor
T2 sequence (P08637 17-208 F176V limits assumed): as the sequence (P08637 17-208 limits assumed) above, with F160V counted along it

[4] = target: T3, recombinant ovalbumin (OVA) (Gallus gallus (Chicken), UniProt P01012 1-386); assay: ELISA, plate coated with recombinant protein at 1 µg/mL, serial dilution of biotin-conjugated FcγR, streptavidin-HRP
T3 sequence: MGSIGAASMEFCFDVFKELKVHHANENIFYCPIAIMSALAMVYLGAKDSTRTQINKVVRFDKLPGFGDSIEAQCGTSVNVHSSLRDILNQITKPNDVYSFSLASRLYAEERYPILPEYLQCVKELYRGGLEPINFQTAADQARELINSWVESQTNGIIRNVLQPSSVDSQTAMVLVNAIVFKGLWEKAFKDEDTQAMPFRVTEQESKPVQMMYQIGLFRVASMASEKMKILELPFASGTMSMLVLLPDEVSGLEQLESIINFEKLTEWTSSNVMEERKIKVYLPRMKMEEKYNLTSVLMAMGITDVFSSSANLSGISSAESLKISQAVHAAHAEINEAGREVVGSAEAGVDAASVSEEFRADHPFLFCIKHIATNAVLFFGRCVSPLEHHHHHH

| Binder | binding result [1] | binding result [2] | binding result [3] | binding result [4] |
| --- | --- | --- | --- | --- |
| B1 | binds | binds | binds |  |
| B2 |  |  |  | no binding |
| B3 |  |  |  | no binding |
| B4 | binds | binds | binds |  |
| B5 |  |  |  | no binding |

— US20190321456A1 (NATIONAL HEALTH RESEARCH INSTITUTES, published 2019)
